These results are taken from publication PMC11665612.

In assay [1] the target is FL-G41C CaM (calmodulin G41C labelled with fluorescein-5-maleimide at Cys41, N-lobe) (UniProt P0DP23). As to the kind of experiment: fluorescence quenching on mixing.
Assay [2] deals with heme-binding globin domain of human androglobin (Adgb), Cys132 mutated to Ser (human).

With “heme-binding globin domain of human androglobin (Adgb), Cys132 mutated to Ser (domain or fragment)”, the decrease in fluorescence intensity at 531 nm in assay [1] amounted to 35%. In the case of “calmodulin (CaM) (from UniProt P0DP23 1-149) (natural protein)”, in assay [2], the k1 (fast) of nitrite reduction, Adgb–CaM complex against Adgb alone worked out at 1.8 fold and the kcat of nitrite reduction by the Adgb–CaM complex (nitrite 2.5–15 mM) amounted to 0.64 s⁻¹.
